Results: article PMC3505834 (Nature immunology, 2012)

Molecular target: T1, recombinant soluble CD46 (CCP1-4) (human, UniProt P15529 35-285)
T1 sequence (looked up): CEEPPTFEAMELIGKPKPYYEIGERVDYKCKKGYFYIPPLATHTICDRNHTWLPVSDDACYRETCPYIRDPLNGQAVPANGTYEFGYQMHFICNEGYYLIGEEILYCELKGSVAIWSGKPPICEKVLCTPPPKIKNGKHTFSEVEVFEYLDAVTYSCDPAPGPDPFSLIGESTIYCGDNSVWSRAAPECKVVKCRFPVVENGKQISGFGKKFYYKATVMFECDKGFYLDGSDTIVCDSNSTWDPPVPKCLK
Experiment: SPR

- Kd: ~8 µM
B1: J-1_(DSL-EGF3), recombinant Jagged1 construct of the DSL and first three EGF-like domains (domain or fragment)
chain: not shown
modifications: c-terminally biotinylated
